Laboratory results as given in patent US20210300992A1 (Stanford University, published 2021).

Key:
[1] = biological target: T1, human leukemia inhibitory factor (LIF), soluble (human, UniProt P15018 23-202); assay: yeast surface display, flow cytometry; score from summed fluorescence at 10 pM and 100 pM human LIF, normalized to wild-type and to expression
T1 construct: also called human LIF; soluble human LIF

[2] = biological target: T1, human leukemia inhibitory factor (LIF), …; assay: yeast surface display, flow cytometry; Score column of the table of sorted gp130 CBM variants (the filing gives 100 pM and 1 nM human LIF for the gp130 binding scores)

T1 sequence (P15018 23-202 limits assumed): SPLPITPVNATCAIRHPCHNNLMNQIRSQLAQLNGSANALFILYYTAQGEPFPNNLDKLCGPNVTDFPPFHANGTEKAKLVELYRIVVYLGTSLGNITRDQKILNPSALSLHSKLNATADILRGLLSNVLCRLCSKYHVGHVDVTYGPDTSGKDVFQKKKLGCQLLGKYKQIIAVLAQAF

B1: PAID (receptor)
yeast-displayed receptor fragment: QKKGAPHDLKCVTNNLQVWNCSWKAPSGTGRGTDYEVCIENRSRSCYQLEKTSIKIPALSHGDYEITINSLHDFGSSTSKFTLNEQNVSLIPDTPEILNLSADFSTSTLYLKWNDRGSVFPHRSNVIWEIKVLRKESMELVKLVTHNTTLNGKDTLHHWSWASDMPLECAIHFVEIRCYIDNLHFSGLEEWSDWSPVKNISWIPDSQTKVFPQDKVIPVGSDITFCCVSQEKVLSALIGHTNCPLIHLDGENVAIKIRNISASASSGTNVVFITEDDIFGTVIFAGYPPDTPQQLNCETHDLKEIICSWNPGRVTALVGPRATSYTLVESFSGKYVRLKRAEAPTNESYQLLFQMLPNQEIYNFTLNAHNPLGRSQSTILVNITEKVYPHTPTSFKVKDINSTAVKLSWHLPGNFAKINFLCEIEIKKSNSVQEQRNVTIKGVENSSYLVALDKLNPYTLYTFRIRCSTETFWKWSKWSNKKQHLTTEAS
notes: 4 mutations, all marked
- Score (normalized binding score) [1]: 13.3

B2: PID (receptor)
yeast-displayed receptor fragment: QKKGAPHDLKCVTNNLQVWNCSWKAPSGTGRGTDYEVCIENRSRSCYQLEKTSIKIPALSHGDYEITINSLHDFGSSTSKFTLNEQNVSLIPDTPEILNLSADFSTSTLYLKWNDRGSVFPHRSNVIWEIKVLRKESMELVKLVTHNTTLNGKDTLHHWSWASDMPLECAIHFVEIRCYIDNLHFSGLEEWSDWSPVKNISWIPDSQTKVFPQDKVIPVGSDITFCCVSQEKVLSALIGHTNCPLIHLDGENVAIKIRNVSVSASSGTNVVFITEDDIFGTVIFAGYPPDTPQQLNCETHDLKEIICSWNPGRVTALVGPRATSYTLVESFSGKYVRLKRAEAPTNESYQLLFQMLPNQEIYNFTLNAHNPLGRSQSTILVNITEKVYPHTPTSFKVKDINSTAVKLSWHLPGNFAKINFLCEIEIKKSNSVQEQRNVTIKGVENSSYLVALDKLNPYTLYTFRIRCSTETFWKWSKWSNKKQHLTTEAS
- Score (normalized binding score) [1]: 12.2

B3: PVAID (receptor)
yeast-displayed receptor fragment: QKKGAPHDLKCVTNNLQVWNCSWKAPSGTGRGTDYEVCIENRSRSCYQLEKTSIKIPALSHGDYEITINSLHDFGSSTSKFTLNEQNVSLIPDTPEILNLSADFSTSTLYLKWNDRGSVFPHRSNVIWEIKVLRKESMELVKLVTHNTTLNGKDTLHHWSWASDMPLECAIHFVEIRCYIDNLHFSGLEEWSDWSPVKNISWIPDSQTKVFPQDKVIPVGSDITFCCVSQEKVLSALIGHTNCPLIHLDGENVAIKVRNISASASSGTNVVFITEDDIFGTVIFAGYPPDTPQQLNCETHDLKEIICSWNPGRVTALVGPRATSYTLVESFSGKYVRLKRAEAPTNESYQLLFQMLPNQEIYNFTLNAHNPLGRSQSTILVNITEKVYPHTPTSFKVKDINSTAVKLSWHLPGNFAKINFLCEIEIKKSNSVQEQRNVTIKGVENSSYLVALDKLNPYTLYTFRIRCSTETFWKWSKWSNKKQHLTTEAS
notes: 5 mutations, all marked
- Score (normalized binding score) [1]: 15.6

B4: VPSID (receptor)
yeast-displayed receptor fragment: QKKGAPHDLKCVTNNLQVWNCSWKAPSGTGRGTDYEVCIENRSRSCYQLEKTSIKIPALSHGDYEITINSLHDFGSSTSKFTLNEQNVSLIPDTPEILNLSADFSTSTLYLKWNDRGSVFPHRSNVIWEIKVLRKESMELVKLVTHNTTLNGKDTLHHWSWASDMPLECAIHFVEIRCYIDNLHFSGLEEWSDWSPVKNISWIPDSQTKVFPQDKVVPVGSDITFCCVSQEKVLSALIGHTSCPLIHLDGENVAIKIRNISVSASSGTNVVFITEDDIFGTVIFAGYPPDTPQQLNCETHDLKEIICSWNPGRVTALVGPRATSYTLVESFSGKYVRLKRAEAPTNESYQLLFQMLPNQEIYNFTLNAHNPLGRSQSTILVNITEKVYPHTPTSFKVKDINSTAVKLSWHLPGNFAKINFLCEIEIKKSNSVQEQRNVTIKGVENSSYLVALDKLNPYTLYTFRIRCSTETFWKWSKWSNKKQHLTTEAS
notes: 5 mutations, all marked
- Score (normalized binding score) [1]: 13.2

B5: VPDAID (receptor)
yeast-displayed receptor fragment: QKKGAPHDLKCVTNNLQVWNCSWKAPSGTGRGTDYEVCIENRSRSCYQLEKTSIKIPALSHGDYEITINSLHDFGSSTSKFTLNEQNVSLIPDTPEILNLSADFSTSTLYLKWNDRGSVFPHRSNVIWEIKVLRKESMELVKLVTHNTTLNGKDTLHHWSWASDMPLECAIHFVEIRCYIDNLHFSGLEEWSDWSPVKNISWIPDSQTKVFPQDKVVPVGSDITFCCVSQEKVLSALIGHTDCPLIHLDGENVAIKIRNISASASSGTNVVFITEDDIFGTVIFAGYPPDTPQQLNCETHDLKEIICSWNPGRVTALVGPRATSYTLVESFSGKYVRLKRAEAPTNESYQLLFQMLPNQEIYNFTLNAHNPLGRSQSTILVNITEKVYPHTPTSFKVKDINSTAVKLSWHLPGNFAKINFLCEIEIKKSNSVQEQRNVTIKGVENSSYLVALDKLNPYTLYTFRIRCSTETFWKWSKWSNKKQHLTTEAS
notes: 6 mutations, all marked
- Score (normalized binding score) [1]: 14.4

B6: PSVID (receptor)
yeast-displayed receptor fragment: QKKGAPHDLKCVTNNLQVWNCSWKAPSGTGRGTDYEVCIENRSRSCYQLEKTSIKIPALSHGDYEITINSLHDFGSSTSKFTLNEQNVSLIPDTPEILNLSADFSTSTLYLKWNDRGSVFPHRSNVIWEIKVLRKESMELVKLVTHNTTLNGKDTLHHWSWASDMPLECAIHFVEIRCYIDNLHFSGLEEWSDWSPVKNISWIPDSQTKVFPQDKVIPVGSDITFCCVSQEKVLSALIGHTSCPLIHLDGENVAIKIRNVSVSASSGTNVVFITEDDIFGTVIFAGYPPDTPQQLNCETHDLKEIICSWNPGRVTALVGPRATSYTLVESFSGKYVRLKRAEAPTNESYQLLFQMLPNQEIYNFTLNAHNPLGRSQSTILVNITEKVYPHTPTSFKVKDINSTAVKLSWHLPGNFAKINFLCEIEIKKSNSVQEQRNVTIKGVENSSYLVALDKLNPYTLYTFRIRCSTETFWKWSKWSNKKQHLTTEAS
notes: 5 mutations, all marked
- Score (normalized binding score) [1]: 13.4

B7: PRVAID (receptor)
yeast-displayed receptor fragment: QKKGAPHDLKCVTNNLQVWNCSWKAPSGTGRGTDYEVCIENRSRSCYQLEKTSIKIPALSHGDYEITINSLHDFGSSTSKFTLNEQNVSLIPDTPEILNLSADFSTSTLYLKWNDRGSVFPHRSNVIWEIKVLRKESMELVKLVTHNTTLNGKDTLHHWSWASDMPLECAIHFVEIRCYIDNLHFSGLEEWSDWSPVKNISWIPDSQTKVFPQDKVIPVGSDITFCCVSQEKVLSALIGRTNCPLIHLDGENVAIKVRNISASASSGTNVVFITEDDIFGTVIFAGYPPDTPQQLNCETHDLKEIICSWNPGRVTALVGPRATSYTLVESFSGKYVRLKRAEAPTNESYQLLFQMLPNQEIYNFTLNAHNPLGRSQSTILVNITEKVYPHTPTSFKVKDINSTAVKLSWHLPGNFAKINFLCEIEIKKSNSVQEQRNVTIKGVENSSYLVALDKLNPYTLYTFRIRCSTETFWKWSKWSNKKQHLTTEAS
- Score (normalized binding score) [1]: 16.9

B8: wild-type human gp130 CBM domain displayed on the surface of yeast (receptor)
chain: LPPEKPKNLSCIVNEGKKMRCEWDRGRETHLETNFTLKSEWATHKFADCKAKRDTPTSCTVDYSTVYFVNIEVWVEAENALGKVTSDHINFDPVYKVKPNPPHNLSVINSEELSSILKLTWTNPSIKSVIILKYNIQYRTKDASTWSQIPPEDTASTRSSFTVQDLKPFTEYVFRIRCMKEDGKGYWSDWSEEASGITYED
notes: also called gp130 wild-type (WT); wild-type gp130
- Score (binding score) [2]: 1.03

B9: ELDSM (receptor)
yeast-displayed receptor fragment: LPPEKPKNLSCIVNEGKKMRCEWDRGRETHLETNFTLKSEWATHELADCKAKRDTPTSCTVDYSTVYFVNIEVWVEAENALGKVTSDHINFDPVDKVKPSPPHNLSVINSEELSSILKLTWTNPSIKSVMILKYNIQYRTKDASTWSQIPPEDTASTRSSFTVQDLKPFTEYVFRIRCMKEDGKGYWSDWSEEASGITYED
notes: 5 mutations, all marked
- Score (binding score) [2]: 21.9

B10: EDE (receptor)
yeast-displayed receptor fragment: LPPEKPKNLSCIVNEGKKMRCEWDRGRETHLETNFTLKSEWATHEFADCKAKRDTPTSCTVDYSTVYFVNIEVWVEAENALGKVTSDHINFDPVDKVKPNPPHNLSVINSEELSSILKLTWTNPSIKSVIILKYNIQYRTKDASTWSQIPPEDTASTRSSFTVQDLKPFTEYVFRIRCMKEDGEGYWSDWSEEASGITYED
notes: 3 mutations, all marked
- Score (binding score) [2]: 23

B11: ELRDM (receptor)
yeast-displayed receptor fragment: LPPEKPKNLSCIVNEGKKMRCEWDRGRETHLETNFTLKSEWATHELADCKAKRDTPTSCTVDYSTVYFVNIEVWVEAENALGRVTSDHINFDPVDKVKPNPPHNLSVINSEELSSILKLTWTNPSIKSVMILKYNIQYRTKDASTWSQIPPEDTASTRSSFTVQDLKPFTEYVFRIRCMKEDGKGYWSDWSEEASGITYED
notes: 5 mutations, all marked
- Score (binding score) [2]: 22.1
